The source of these data is US20250250357A1 (NANJING ZAIMING PHARMACEUTICAL, published 2025).

First the molecules themselves.
T1: human MSLN-R1-his protein (human, UniProt Q13421 296-390)
T1 construct: Made in HEK293E cells, purified on nickel column; also called hMSLN-R1-his; human MSLN-R1 protein; not shown: His tag
T1 chain: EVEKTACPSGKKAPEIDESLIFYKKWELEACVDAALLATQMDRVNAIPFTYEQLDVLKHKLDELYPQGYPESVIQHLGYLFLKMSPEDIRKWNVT

B1: S009-F7.66.12 chimeric antibody (antibody, human IgG1, kappa, V domains shown)
VH: QIPLQQSGPELVKPGASVRISCKASDYAFSSSWMNWVKQRPEKGLEWIGRIFVESGNTHYNDKFNGKATLTADKSSRTAYIQLSSLTSEDSAVYFCTRENIFYHGHSSWFAYWGQGTLVTVSA
VL: DIVLTQSPASLVVSLGQRATISCRAGESVDDFGISYVHWYQQKPGQPPKLLIYRAANLESGIPARFSGSGSRTDFTLTINPVETDDVAIYYCQQNNKDPFTFGSGTKLEIKR
notes: Human-murine chimeric antibody, human IgG1/kappa constant regions
B2: S009-F7.61.21 chimeric antibody (antibody, human IgG1, kappa, V domains shown)
VH: DVQLQQSGPELVEPGASVRIPCKAAGHTFTDYNVDWVKQSHGQSLEWIGDVNPNTDGAIYNQKFEGKATLTVDTSSSTAYMELRSLTSEDTAVYFCARRRLGQGGFDSWGQGTTLTVSS
VL: QVVLTQSPAIMSASPGEKVTLTCGASSSLISKYLYWYQQKPGSSPKLWIYSTSNLASGVPARFSGSGSGTSYSLTISSMEAEDAASYFCHQWSSYPYTFGGGTKVEIKR
notes: as for B1
B3: S009-F7.65.13 chimeric antibody (antibody, human IgG1, kappa, V domains shown)
VH: EVQLQQSGPELVKPGTSVKILCKASGDTFTAYNMDWVKQRHGQSLEWIGDINPNTDSTIYNQKFEGKAILTVDKSSSTAYMELRSLTSEDTAVYYCARRKLGRGYFDYWGQGTTLTVSS
VL: QIVLTQSPAIMSASPGEKVTMTCSVNLSVRYIYWYQQKPGSSPRLLIHDTSNLASGVPVRFSGSGSGTSYSLTISRMEAEDAATYYCQQWSSFPYTFGGGTKLEIKR
notes: as for B1
B4: S009-F7.53.2 chimeric antibody (antibody, human IgG1, kappa, V domains shown)
VH: EVQLQQSGPELVKPGASVKIPCKTSGYTFTDYNMDWVKQSHGKSLEWIGDINPNTDGAIYNQKFQNKATLTVDKSSSTAYMELRSLTSEDTAVYYCTRRKLGRKFFDYWGQGTTLTVSS
VL: QIVLTQSPAIMSASPGEQVTMTCSASSSVGYMNWYQQKPGSSPRLLIYDTSNLASGVPVHFSGSGSGTSYSLTISRMEAAFAATYYCQQWYVYPYTFGGGTKLEIKR
notes: as for B1
B5: S009-F7.69.8 chimeric antibody (antibody, human IgG1, kappa, V domains shown)
VH: EVHLQQSGPELVKPGASVRIPCKASGYTFTDYNMDWVKQSHGKSLEWIGDINPDNGGTIYTQKFKGKATLTVDKSSSTAYMELRSLTSEDTAVYYCARRLHYYGSSGLDYWGQGTTLTVSS
VL: DIQMTQSPASLSAYVGETVTITCRASGNIHNYLAWYQQKQGKSPQLLVYNAKTLADGVPSRFSGSGSGTQYSLKINSLQPEDFGSYYCQHFWSTVWTFGGGTKLEIKR
notes: as for B1
B6: S009-F7.67.12 chimeric antibody (antibody, human IgG1, kappa, V domains shown)
VH: QVQLQQPGTELVKPGASVRLSCRASGYSFSSYWMHWVKQRPGQGLEWLGNINPTTGDINYNEKFRNRATLAVDKSSTTAYLQLTSLTSEDSAVYFCVRHDGFLWGQGTTLTVSS
VL: DIQMTQSPASLSASVGETVTITCRASENIYSYLAWYQQKQGKSPQLLVYYAKTLAEGVSSRFSGSGSGTQFSLKINSLQPEDFGTYYCQHQFGTPRTFGGGTKLEIRR
notes: as for B1

T2 sequence (Q13421 other isoform, or with tags, fused parts or gaps): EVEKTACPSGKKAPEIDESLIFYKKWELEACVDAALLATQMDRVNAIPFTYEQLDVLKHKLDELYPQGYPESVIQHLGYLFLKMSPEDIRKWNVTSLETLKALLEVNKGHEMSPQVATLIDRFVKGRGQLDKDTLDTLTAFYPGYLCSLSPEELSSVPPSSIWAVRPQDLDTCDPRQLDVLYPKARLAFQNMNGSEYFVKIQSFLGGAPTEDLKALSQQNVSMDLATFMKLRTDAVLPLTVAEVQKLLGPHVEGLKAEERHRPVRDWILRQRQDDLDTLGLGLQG

The target of one test is T1, human MSLN-R1-his protein. The experiment in a line: ELISA, coated antigen, antibody 2 nM.
For B1, the OD450 amounted to 0.05.

Regarding B2, the OD450 turned out to be 0.05.

Regarding B3, the OD450 stood at 0.05.

In the case of B4, the OD450 came to 0.05.

The molecule B5 gave an OD450 of 0.04.

On to B6, for which the OD450 was determined as 0.05.

The target in a further test is T1, human MSLN-R1-his protein. The experiment in a line: ELISA, coated antigen, no antibody (blank).
Procedure: (§1) The plate was sealed with a plastic film and incubated at 4° C. overnight. The next day, the plate was washed twice with PBST, and a blocking buffer [PBS+2% (w/w) BSA] was added for blocking at room temperature for 2 h. The blocking buffer was discarded, and a chimeric antibody or negative control antibody serially diluted from 100 nM was added at 50 μL/well. After incubation at 37° C. for 2 h, the plate was washed 3 times with PBST. […] After incubation at 37° C. for 2 h, the plate was washed 5 times with PBST. A TMB substrate was added at 50 μL/well for incubation at room temperature for 5-10 min, and then a stop solution (1.0 N HCl) was added at 50 μL/well.
The molecule B1 yielded an OD450 of 0.06.

Regarding B2, the OD450 was determined as 0.07.

On to B3, for which the OD450 was 0.07.

Consider B4, for which the OD450 was 0.06.

B5 came in with an OD450 of 0.07.

In turn, B6 displayed an OD450 of 0.07.

A further test has as its target T2, human MSLN-FL-his protein (human, UniProt Q13421 296-580).
T2 construct: Made in HEK293E cells, purified on nickel column; also called hMSLN-FL-his; human MSLN full-length protein; not shown: His tag
Briefly: ELISA, coated antigen, antibody 2 nM.
On to B1, for which the OD450 was 2.23.

Molecule B2 registered an OD450 of 2.14.

In the case of B3, the OD450 worked out at 2.11.

Molecule B4 had an OD450 of 2.1.

For the molecule B5, the OD450 is 2.29.

As for B6, the OD450 was determined as 2.07.

Another test concerns the target T1, human MSLN-R1-his protein. The experiment in a line: ELISA, coated antigen, antibody 200 nM.
Procedure: as §1
B1 showed an OD450 of 0.13.

As for B2, the OD450 was 0.07.

B3 showed an OD450 of 0.08.

Molecule B4 yielded an OD450 of 0.07.

Molecule B5 had an OD450 of 0.11.

Take B6: the OD450 turned out to be 0.07.

The next test has as its target T1, human MSLN-R1-his protein. Briefly: ELISA, coated antigen, antibody 0.02 nM.
Take B1: the OD450 amounted to 0.04.

Regarding B2, the OD450 amounted to 0.05.

Turning to B3, the OD450 amounted to 0.05.

B4 came in with an OD450 of 0.04.

B5 came in with an OD450 of 0.04.

B6 had an OD450 of 0.05.

The target in a further test is T2, human MSLN-FL-his protein. The experiment in a line: ELISA, coated antigen, antibody 0.02 nM.
Procedure: as §1
As to B1, the OD450 amounted to 1.77.

Molecule B2 registered an OD450 of 0.95.

B3: the OD450 worked out at 1.35.

Molecule B4 registered an OD450 of 0.47.

For B5, the OD450 was determined as 1.42.

Take B6: the OD450 turned out to be 0.75.

A further test deals with T2, human MSLN-FL-his protein. Briefly: ELISA, coated antigen, antibody 0.2 nM.
For B1, the OD450 was found to be 2.24.

In the case of B2, the OD450 was determined as 1.96.

B3 showed an OD450 of 2.1.

The molecule B4 returned an OD450 of 1.53.

For the molecule B5, the OD450 was 2.15.

B6 returned an OD450 of 1.78.

The next test deals with T2, human MSLN-FL-his protein. The experiment in a line: ELISA, coated antigen, antibody 0.002 nM.
Procedure: as §1
The molecule B1 registered an OD450 of 1.19.

In the case of B2, the OD450 came out at 0.23.

In the case of B3, the OD450 turned out to be 0.52.

Take B4: the OD450 is 0.12.

The molecule B5 showed an OD450 of 0.43.

Regarding B6, the OD450 amounted to 0.23.

The next test concerns the target T2, human MSLN-FL-his protein. The experiment in a line: ELISA, coated antigen, antibody 20 nM.
Take B1: the OD450 came out at 2.2.

Consider B2, for which the OD450 was 2.14.

As to B3, the OD450 came to 2.12.

In the case of B4, the OD450 stood at 2.2.

Turning to B5, the OD450 is 2.26.

Turning to B6, the OD450 was found to be 2.23.

For a further test, the target named is T2, human MSLN-FL-his protein. The experiment in a line: ELISA, coated antigen, no antibody (blank).
In turn, B1 returned an OD450 of 0.07.

With B2, the OD450 was 0.06.

The molecule B3 showed an OD450 of 0.06.

B4: the OD450 was determined as 0.06.

Take B5: the OD450 was 0.06.

B6 showed an OD450 of 0.05.

A further test deals with T2, human MSLN-FL-his protein. The experiment in a line: ELISA, coated antigen, antibody 0.0002 nM.
Procedure: as §1
Molecule B1 yielded an OD450 of 0.77.

Molecule B2 showed an OD450 of 0.09.

B3 came in with an OD450 of 0.24.

B4: the OD450 was determined as 0.06.

Take B5: the OD450 is 0.13.

B6 showed an OD450 of 0.13.

The next test has as its target T1, human MSLN-R1-his protein. Briefly: ELISA, coated antigen, antibody 20 nM.
B1: the OD450 was found to be 0.06.

The molecule B2 displayed an OD450 of 0.05.

The molecule B3 returned an OD450 of 0.05.

B4: the OD450 amounted to 0.05.

Take B5: the OD450 stood at 0.06.

The molecule B6 registered an OD450 of 0.05.

In another test the target is T1, human MSLN-R1-his protein. Briefly: ELISA, coated antigen, antibody 0.0002 nM.
B1 displayed an OD450 of 0.06.

As for B2, the OD450 came out at 0.05.

As to B3, the OD450 was determined as 0.05.

Regarding B4, the OD450 was 0.05.

In turn, B5 registered an OD450 of 0.05.

The molecule B6 came in with an OD450 of 0.04.

Another test concerns the target T1, human MSLN-R1-his protein. Briefly: ELISA, coated antigen, antibody 0.2 nM.
Procedure: as §1
Turning to B1, the OD450 worked out at 0.04.

For the molecule B2, the OD450 was 0.05.

The molecule B3 had an OD450 of 0.05.

Turning to B4, the OD450 stood at 0.04.

For the molecule B5, the OD450 was determined as 0.05.

The molecule B6 came in with an OD450 of 0.05.

The target of a further test is T1, human MSLN-R1-his protein. The experiment in a line: ELISA, coated antigen, antibody 0.002 nM.
Procedure: as §1
Regarding B1, the OD450 came to 0.04.

In turn, B2 registered an OD450 of 0.05.

B3 came in with an OD450 of 0.05.

In the case of B4, the OD450 was 0.05.

Consider B5, for which the OD450 was found to be 0.05.

Take B6: the OD450 was determined as 0.05.

The target of a further test is T2, human MSLN-FL-his protein. Briefly: ELISA, coated antigen, antibody 200 nM.
Procedure: as §1
Take B1: the OD450 is 2.1.

As to B2, the OD450 stood at 2.15.

As for B3, the OD450 was 2.13.

With B4, the OD450 was found to be 2.6.

As to B5, the OD450 worked out at 2.1.

B6: the OD450 turned out to be 1.96.
